The assay concerns the target mannose receptor (UniProt Q61830). The experiment in a line: cell-based or functional assay.

Chain of mannose receptor (Q61830 20-1456 limits assumed): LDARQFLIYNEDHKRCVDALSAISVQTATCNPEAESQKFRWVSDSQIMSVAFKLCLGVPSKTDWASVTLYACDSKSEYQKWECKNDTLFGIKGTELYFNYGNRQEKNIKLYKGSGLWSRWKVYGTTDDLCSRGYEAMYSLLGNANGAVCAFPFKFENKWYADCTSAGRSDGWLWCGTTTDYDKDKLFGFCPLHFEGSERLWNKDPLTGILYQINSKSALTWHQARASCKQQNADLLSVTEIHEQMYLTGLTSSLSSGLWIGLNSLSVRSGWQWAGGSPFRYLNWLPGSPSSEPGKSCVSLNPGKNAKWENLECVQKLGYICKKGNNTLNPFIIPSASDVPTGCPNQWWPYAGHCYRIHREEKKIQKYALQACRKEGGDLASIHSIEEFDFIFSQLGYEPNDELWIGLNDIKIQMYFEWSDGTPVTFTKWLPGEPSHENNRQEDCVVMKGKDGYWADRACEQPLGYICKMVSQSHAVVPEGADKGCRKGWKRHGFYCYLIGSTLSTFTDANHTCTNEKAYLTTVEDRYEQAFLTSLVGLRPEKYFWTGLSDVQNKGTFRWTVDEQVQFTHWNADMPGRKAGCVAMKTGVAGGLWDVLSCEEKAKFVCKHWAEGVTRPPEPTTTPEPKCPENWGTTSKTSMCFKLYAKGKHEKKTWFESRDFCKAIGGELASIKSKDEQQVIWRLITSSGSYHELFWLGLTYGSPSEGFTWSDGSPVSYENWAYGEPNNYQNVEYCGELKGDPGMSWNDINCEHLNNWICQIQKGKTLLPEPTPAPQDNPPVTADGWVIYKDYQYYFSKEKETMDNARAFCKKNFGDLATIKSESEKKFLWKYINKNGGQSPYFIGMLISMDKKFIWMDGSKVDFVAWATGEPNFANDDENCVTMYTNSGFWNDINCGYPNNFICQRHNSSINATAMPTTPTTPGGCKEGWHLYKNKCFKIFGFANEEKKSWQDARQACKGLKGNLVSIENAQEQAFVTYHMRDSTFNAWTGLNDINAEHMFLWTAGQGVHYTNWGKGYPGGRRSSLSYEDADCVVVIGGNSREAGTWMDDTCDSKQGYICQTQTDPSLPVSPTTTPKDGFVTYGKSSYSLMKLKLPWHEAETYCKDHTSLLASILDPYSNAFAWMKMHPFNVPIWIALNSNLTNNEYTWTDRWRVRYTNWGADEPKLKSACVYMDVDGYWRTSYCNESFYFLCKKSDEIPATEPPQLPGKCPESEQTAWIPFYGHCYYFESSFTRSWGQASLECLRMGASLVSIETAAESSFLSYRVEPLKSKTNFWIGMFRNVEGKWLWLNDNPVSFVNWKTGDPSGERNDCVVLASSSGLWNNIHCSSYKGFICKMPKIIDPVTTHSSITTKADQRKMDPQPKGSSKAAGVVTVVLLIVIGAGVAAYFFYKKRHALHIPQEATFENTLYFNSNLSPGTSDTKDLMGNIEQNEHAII

SapC-DOPS-GCase nanovesicles displayed a GCase uptake (net GCase activity) blocked by mannan in J774E macrophages or Gba1-/- neurons of 20%.

The record behind these values is patent US20230103407A1.
